Blank lines part the entries; values can stand above or below the molecule they belong to.
Legend:
[1] = biological target: bradykinin B1 receptor (Homo sapiens) (UniProt P46663); experiment: radioligand binding; settings: cited from earlier work
[2] = biological target: T1, human B1R C-terminally tagged with FLAG (hB1R-FLAG) (human, UniProt P46663 1-353); experiment: radioligand binding; competition of unlabeled pure peptides with 1 nM [^3H]Lys-des-Arg^9-BK on intact, adherent HEK 293a cells (24-well plates) transiently expressing hB1R-FLAG; one-site competition fit (series of Fig 2 and the Lys-des-Arg^9-BK curve of Fig 7); settings: one partner purified
T1 construct: also called human B1R-FLAG; bradykinin B1 receptor; not shown: FLAG, C-terminal, kept
T1 sequence (looked up): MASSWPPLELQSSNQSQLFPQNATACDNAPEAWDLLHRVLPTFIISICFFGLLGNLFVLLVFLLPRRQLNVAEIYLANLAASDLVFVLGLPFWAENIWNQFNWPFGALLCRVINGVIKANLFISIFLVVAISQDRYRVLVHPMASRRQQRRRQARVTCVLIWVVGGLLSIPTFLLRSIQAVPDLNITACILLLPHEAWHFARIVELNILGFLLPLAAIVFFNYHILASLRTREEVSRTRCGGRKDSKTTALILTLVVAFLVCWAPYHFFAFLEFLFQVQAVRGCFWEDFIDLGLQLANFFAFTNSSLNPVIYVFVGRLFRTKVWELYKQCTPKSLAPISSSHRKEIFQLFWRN

[3] = biological target: T1, human B1R C-terminally tagged with FLAG …; experiment: radioligand binding; competition of dilutions of a producer-cell lysate of known EGFP-S4-P1 concentration (GFP ELISA) with 1 nM [^3H]Lys-des-Arg^9-BK (bought radioligand) on intact HEK 293a cells expressing hB1R-FLAG; Ki by the Cheng-Prusoff correction; settings: partners not purified

Molecule: Lys-des-Arg9-bradykinin (from UniProt P01042)
Kd [1]: 0.35 nM

IC50 [2]: 663 nM
Molecule: NGNGNGNGNGKRPPGFSPL [synthetic S3-P2]

IC50 [2]: 75.1 nM
Molecule: NGNGNGNGNGKRPPGFSPF (also called (Asn-Gly)5-Lys-des-Arg^9-BK) [synthetic S3-P1]

IC50 [3]: 25.5 nM
Ki [3]: 6.6 nM
B1: EGFP-S4-P1 (EGFP-(NG)15-Lys-des-Arg^9-BK) (ligand)
chain: NGNGNGNGNGNGNGNGNGNGNGNGNGNGNGKRPPGFSPF
notes: also called EGFP-(Asn-Gly)15-Lys-des-Arg^9-BK
